From US12187807B2, “Antibody molecules to C5AR1 and uses thereof” (Visterra, Inc., priority 2020, dated 2025)
Entries after “also recorded” stand apart in the source; their conditions may differ. Read-outs that look alike come from different tables or passages of the source.

Tests used:
C5aR1 (C5aR1-U937 cells) = target: T1, C5aR1 (C5aR1-U937 cells) (Homo sapiens, UniProt P21730, K279N); assay: C5a induced calcium flux (Fluo-4), C5aR1-U937 cells; assay type: cell-based
T1 construct: expressed in transfected cells
T1 sequence (P21730 with tags, fused parts or gaps K279N limits assumed): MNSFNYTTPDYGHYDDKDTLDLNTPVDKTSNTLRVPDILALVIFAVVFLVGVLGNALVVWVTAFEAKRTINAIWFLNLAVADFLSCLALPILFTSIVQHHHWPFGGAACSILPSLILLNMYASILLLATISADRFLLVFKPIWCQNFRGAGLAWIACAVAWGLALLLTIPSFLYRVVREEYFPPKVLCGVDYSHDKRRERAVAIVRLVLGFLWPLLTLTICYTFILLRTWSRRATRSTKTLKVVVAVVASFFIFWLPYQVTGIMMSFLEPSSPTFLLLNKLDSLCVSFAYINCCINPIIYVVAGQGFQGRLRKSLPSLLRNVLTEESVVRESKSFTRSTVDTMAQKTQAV
Source text: Intracellular calcium is released into the cytoplasm by stimulation of GPCRs and acts as a second messenger of GPCR signaling, commonly used to quantify GPCR agonism and antagonism. As such, calcium flux assays using calcium sensitive dye were utilized to detect cytosolic changes in calcium concentration. […] The dye penetrated the cell membrane and became active once inside the cell. The active form of the dye became fluorescent after binding to intracellular calcium and the fluorescence was used to determine C5aR1 signaling in response to C5a addition. Specifically, stable C5aR1-U937 cells or neutrophils isolated from whole blood were stained with Fluo-4 Direct Calcium Assay kit from Thermo Fisher for 1 hour at 37° C. Next, antibody or antagonist was incubated with the cells for 30 minutes. The basal fluorescence with an excitation at 494 nm and emission at 516 nm was measured for 15 seconds. C5a was added to the cells and the fluorescence was measured over a span of four minutes. The basal read from before C5a stimulation and the max signal after C5a stimulation were used to calculate the response ratio. The potency of the antibodies was assessed for their ability to inhibit intracellular calcium release in C5aR1 expressing cells in the presence of C5a. Similar to the chemotaxis assay, the calcium flux assays were performed using engineered cells stably expressing C5aR1 as well as using human neutrophils.

[1] = target: T2, biotinylated peptide representing ECL2 of C5aR1 (Homo sapiens, UniProt P21730); assay: Epitope mapping by biolayer interferometry, ECL2 peptide; assay type: binding; set-up: key: “+” indicates binding to the listed peptide; “−” indicates lack of binding to the listed peptide
T2 construct: cyclic ECL2 peptide spanning from residues R175 to C188
Description: (§1) The epitope mapping was undertaken, using biolayer interferometry, on a series of exemplary anti-C5aR1 antibodies generated as described in Example 1. Briefly, for each antibody, biotinylated peptides representing ECL2, the N-terminus with tyrosine sulfation, and the N-terminus without tyrosine sulfation, were immobilized in a streptavidin biosensor. Subsequently, the biosensor was exposed to 10 μg/mL of antibody to detect antibody binding to the immobilized peptide. The results of the epitope mapping study are shown in Table 4 (“+” indicates binding to the listed peptide; “−” indicates lack of binding to the listed peptide).

[2] = target: T3, biotinylated peptide representing the N-terminus of C5aR1 without tyrosine sulfation (Homo sapiens, UniProt P21730); assay: Epitope mapping by biolayer interferometry, N-terminus without tyrosine sulfation; assay type: binding; set-up: key: “+” indicates binding to the listed peptide; “−” indicates lack of binding to the listed peptide; details: 10 μg/mL of antibody, biotinylated peptide on streptavidin biosensor
T3 construct: the N-terminus without tyrosine sulfation
T3 sequence (P21730 1-37 limits assumed): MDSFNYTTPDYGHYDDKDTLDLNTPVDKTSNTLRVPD
Description: as §1

[3] = target: T4, C5aR1 mutants (N-terminus, ECL1, ECL2, ECL3) (Homo sapiens, UniProt P21730, K279N/Y11F); assay: Alanine scanning / mutagenesis epitope mapping of C5aR1; assay type: binding; details: Y11F
T4 sequence (P21730 with tags, fused parts or gaps Y11F/K279N): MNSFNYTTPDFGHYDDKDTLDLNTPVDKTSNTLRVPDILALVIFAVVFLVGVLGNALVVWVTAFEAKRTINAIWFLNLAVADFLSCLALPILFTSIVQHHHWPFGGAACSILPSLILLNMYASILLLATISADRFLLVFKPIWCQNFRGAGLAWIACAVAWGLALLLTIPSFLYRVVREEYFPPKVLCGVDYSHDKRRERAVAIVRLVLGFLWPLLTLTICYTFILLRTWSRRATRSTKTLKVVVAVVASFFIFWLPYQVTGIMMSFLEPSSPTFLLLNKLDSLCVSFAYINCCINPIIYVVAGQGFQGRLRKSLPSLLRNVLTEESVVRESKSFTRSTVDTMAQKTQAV
Source text: FIG. 5A is a diagram showing the results of alanine scanning mutations of site I interaction with mab 583. The N-terminal amino acid sequence of C5aR1 is listed across the top of the figure. Glycosylation sites are indicated by rectangle boxes. The only natural glycosylation site is at position N5. The other sites were introduced by mutagenesis. Mutations that abolished clone 583 binding are circled. The sulfated tyrosines at positions 11 and 14 are marked with a star sign. FIG. 5B is a diagram showing results of alanine scanning mutations of site I interaction with mab 66. Mutations that abolished clone 66 binding are circled. The sulfated tyrosines at positions 11 and 14 are marked with a star sign.
Ala substitutions of T8 & D10 moderately reduces its affinity while Y11 & D15 abolishes mAb binding. […] N-glycosylation of at N17 or D17P also abolishes mAb binding. N5 glycan is tolerated but a tandem glycosylation (N5 & N17) is not tolerated. mAb core epitopes are T8-G12 but nature of AA present in D15-D18 influence its binding. […] The core epitope appears to be located near T8-G12, with additional contributions from D15-D18.
Clone 66 was previously characterized as a site I binder and its binding is dependent on tyrosine sulfation at positions 11Y and/or 14Y. […] It should be noted that the only the only non-human species to retain clone 66 binding was baboon, which is the only NHP that retains the DYGHY motif.
However, it was unknown if additional contacts were made with ECL1 or ECL3. […] The data is highlighted in FIG. 5C-5E.
The core epitope of clone 11 is from E180-P183; the core epitope of clone 329 is from E180-P184; and the core epitope of clone 336 is from R178-P183. […] The data for clones 11, 329, and 336 is highlighted in FIG. 5F.

[4] = biolayer interferometry, 10 μg/mL of antibody, biotinylated peptide on streptavidin biosensor

B1: clone 329: anti-C5aR1 Site II antibody; VH SEQ ID NO: 492, VL SEQ ID NO: 552 (antibody, V domains shown)
VH: QVQLQQSGAELTKPGASVKLSCKASGYTFTNYWMHWVKQRPGQGLEWIGYLNPSSGYTKYNQKFKDKATLTADKSSSTAYMQLNSLTYEDSAVYYCTRSGGDNYGNPYYFDRWGQGTTVTVSS
VL: DVVMTQTPLSLTVSLGDQASISCRSSQSLVHSNGNTYLHWYLQKPGQSPKFLIYKVSNRFSGVPDRFSGSGSGTDFRLKISRVEAEDLGVYFCSQSTLVPLTFGAGTKLEIK
C5aR1 (C5aR1-U937 cells); listed as 329
  inhibition of C5a induced intracellular calcium flux: inhibition of the C5a induced calcium efflux; also recorded: inhibited by antibody 329 in a dose-dependent manner; also recorded: inhibited calcium flux as single agents in a dose-dependent manner
[1]; [4]
  Binding to Cyclic ECL2 peptide: +
[1]; peptide spanning residues R175 to C188
  Binding to Cyclic ECL2 peptide: bound to a cyclic ECL2 peptide
[2]
  Binding to Non-sulfated N-terminal peptide: −

B2: clone 66: anti-C5aR1 Site I antibody; VH SEQ ID NO: 483, VL SEQ ID NO: 543 (antibody, V domains shown)
VH: QVQLQQSDAELVKPGASVKISCKASGYTFIDHAIHWVKQRPEQGLEWIGYISPGNGEIKYNEKFKAKATLTADKSSSAAYMQLNSLTSADSAVYFCKRALFYYTGKYQPMDYWGQGTTVTDSS
VL: DIVMTQSQKFMSTTAGDRVSITCKASQNVGSAVVWYQQKPGRSPKLLIYSSSIRYTGVPDRFTGSGSGTDFTLTINSVQSEDLADYFCQQYNSFPLTFGAGTKLEIK
[3]
  binding to C5aR1 mutant: did not impact binding
C5aR1 (C5aR1-U937 cells)
  inhibition of C5a induced intracellular calcium flux: inhibited calcium flux as single agents in a dose-dependent manner
[1]; [4]
  Binding to Cyclic ECL2 peptide: −
[2]
  Binding to Non-sulfated N-terminal peptide: −

B3: clone 583: anti-C5aR1 Site I antibody; VH SEQ ID NO: 536, VL SEQ ID NO: 595 (antibody, V domains shown)
VH: EVQLVESGGGLVKPGGSLKLSCAASGFTFNAYAMSWVRQTPEKRLEWVASISTGGNTYCPDSVKDRFTVSRDNVRNILYLQMSSLRSEDTAMYYCTRGYQRFSGFAYWGQGTLVTVS
VL: DVVMTQTPLSPPVSLGYQASISCRSSQSLVHSNGNTYLNWYLQKPGQSPKLLIYKVSNRLSGVPDRFSGSGSGTDFTLKISRVETEDLGVYFCSQSTHVPYTFGGGTKLEIK
[3]
  binding to C5aR1 mutant: does not abolish binding
C5aR1 (C5aR1-U937 cells)
  inhibition of C5a induced intracellular calcium flux: inhibition of the C5a induced calcium efflux
[1]; [4]
  Binding to Cyclic ECL2 peptide: −
[2]
  Binding to Non-sulfated N-terminal peptide: +
